This is an account of results in patent US20260210971A1 (Pfizer, published 2026).

First the molecules themselves.
T1: recombinant soluble cynomolgus monkey TL1A (cynomolgus monkey, UniProt O95150 72-251 (human entry))
T1 construct: also called cyno rsTL1A; cyno TL1A
T1 chain: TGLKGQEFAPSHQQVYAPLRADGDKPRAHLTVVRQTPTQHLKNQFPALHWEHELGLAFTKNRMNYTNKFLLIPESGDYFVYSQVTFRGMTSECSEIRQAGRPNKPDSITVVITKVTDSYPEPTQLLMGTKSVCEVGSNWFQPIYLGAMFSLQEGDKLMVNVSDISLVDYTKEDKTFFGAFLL

T2: recombinant soluble murine TL1A (mouse, UniProt Q5UBV8 75-252)
T2 construct: also called murine rsTL1A; mouse TL1A
T2 chain: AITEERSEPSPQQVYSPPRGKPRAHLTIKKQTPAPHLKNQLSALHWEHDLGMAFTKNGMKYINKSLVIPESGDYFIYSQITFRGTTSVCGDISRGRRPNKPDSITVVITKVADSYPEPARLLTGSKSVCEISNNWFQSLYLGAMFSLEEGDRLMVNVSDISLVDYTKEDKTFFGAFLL

T3: recombinant soluble rabbit TL1A (rabbit)
T3 construct: also called rabbit rsTL1A
T3 chain: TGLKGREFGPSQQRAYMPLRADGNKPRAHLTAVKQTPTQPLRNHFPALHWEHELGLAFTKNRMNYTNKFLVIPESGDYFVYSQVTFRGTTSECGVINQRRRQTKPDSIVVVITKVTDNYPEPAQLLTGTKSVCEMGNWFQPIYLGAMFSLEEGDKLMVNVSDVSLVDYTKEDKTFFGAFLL

T4: recombinant soluble rat TL1A (rat, UniProt Q8K3Y7 76-252)
T4 construct: also called rat rsTL1A
T4 sequence: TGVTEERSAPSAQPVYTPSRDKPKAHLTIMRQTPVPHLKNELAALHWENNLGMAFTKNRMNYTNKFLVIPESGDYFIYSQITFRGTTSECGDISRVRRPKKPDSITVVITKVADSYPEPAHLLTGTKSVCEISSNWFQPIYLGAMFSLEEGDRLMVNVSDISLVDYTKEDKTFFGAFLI

T5: endogenous TL1A of stimulated human peripheral blood (human, UniProt O95150 72-251, limits assumed)
T5 sequence (looked up): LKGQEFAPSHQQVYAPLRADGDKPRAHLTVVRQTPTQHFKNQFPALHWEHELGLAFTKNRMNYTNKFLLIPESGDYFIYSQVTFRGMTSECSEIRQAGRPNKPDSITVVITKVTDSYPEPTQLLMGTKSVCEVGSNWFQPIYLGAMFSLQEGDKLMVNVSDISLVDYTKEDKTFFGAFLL

T6: DR3 on TF-1 cells (human, UniProt Q93038 25-417)
T6 sequence (looked up): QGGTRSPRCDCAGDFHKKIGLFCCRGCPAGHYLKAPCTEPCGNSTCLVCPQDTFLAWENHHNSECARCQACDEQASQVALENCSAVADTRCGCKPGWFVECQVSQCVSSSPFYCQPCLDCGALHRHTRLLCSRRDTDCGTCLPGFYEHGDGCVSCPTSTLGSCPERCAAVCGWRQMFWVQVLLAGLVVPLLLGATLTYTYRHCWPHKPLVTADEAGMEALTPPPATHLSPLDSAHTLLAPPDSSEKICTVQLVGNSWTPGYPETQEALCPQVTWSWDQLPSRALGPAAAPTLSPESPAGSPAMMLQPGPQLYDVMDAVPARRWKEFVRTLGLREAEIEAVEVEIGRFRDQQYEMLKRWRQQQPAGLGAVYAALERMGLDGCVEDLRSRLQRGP

B1: anti-TL1A antibody 7D4 (antibody, human IgG1, kappa, V domains shown)
VH: QVQLVQSGAEVKKPGASVKVSCKASGYTFTSYGINWVRQAPGQGLEWMGWISTYNGNTNSAQKLQGRVTMTTDTSTSTAYMELRSLRSDDTAVYYCARAHSSSWFDAFDIWGQGTMVTVSS
VL: AIQLTQSPSSLSASVGDRVTITCRASQGISSALAWYQQKPGKAPKLLIYDASSLESGVPSRFSGSGSGTDFTLTISSLQPEDFATYYCQQFNSYPLTFGGGTKVEIKR
notes: Human IgG1-3m, kappa; also called 7D4-hIgG1-3m
B2: 1D1 1.27 (antibody, human IgG1, kappa, V domains shown)
VH: QVQLVQSGAEVKKPGASVKVSCKASGYDFTYYGISWVRQAPGQGLEWMGWISTYNGNTHYARMLQGRVTMTTDTSTRTAYMELRSLRSDDTAVYYCARENYYGSGSYRGGMDVWGQGTTVTVSS
VL: EIVLTQSPATLSLSPGERATLSCRASQSVSSYLAWYQQKPGQAPRLLIYDASNRATGIPARFSGSGSGTDFTLTISSLEPEDFAVYYCQQRSNWPWTFGQGTKVEIKR
notes: Expressed as IgG1
B3: 1D1 D37 (antibody, IgG1, V domains shown)
VH: B2 VH with D28S, N57G
VL: B2 VL
notes: same light chain as 1D1; also called 1D1-VH-37
B4: 1D1 with heavy chain mutation S28D (antibody, V domains shown)
VH: B2 VH with H59N
VL: EIVLTQSPATLSLSPGERATLSCRASQSVSSYLAWYQQKPGQAPRLLIYDASNRATGIPARFSGSGSGTDFTLTISSLEPEDFAVYYCQQRSNWPWTFGQGTKVEIK
notes: Point mutant of 1D1 CDR-H1
B5: 1D1 DH3 (antibody, V domains shown)
VH: B2 VH with D28S, R62Q
VL: B2 VL
notes: IgG with triple mutant Fc as for 1D1 D37
B6: 1D1 D24 (antibody, V domains shown)
VH: B2 VH with D28S, T53P
VL: B2 VL
notes: as for B5
B7: 1D1 D39 (antibody, V domains shown)
VH: B2 VH with D28S, H59N, S106A, V113A
VL: B2 VL
notes: as for B5
B8: 1D1 D38 (antibody, V domains shown)
VH: B2 VH with D28S, N57V
VL: B2 VL
notes: as for B5
B9: 1D1 with heavy chain mutation S28Q (antibody, V domains shown)
VH: B2 VH with D28Q, H59N
VL: B4 VL
notes: Point mutant of 1D1 CDR-H1
B10: recombinant soluble human TL1A (ligand)
chain: ALKGQEFAPSHQQVYAPLRADGDKPRAHLTVVRQTPTQHFKNQFPALHWEHELGLAFTKNRMNYTNKFLLIPESGDYFIYSQVTFRGMTSECSEIRQAGRPNKPDSITVVITKVTDSYPEPTQLLMGTKSVCEVGSNWFQPIYLGAMFSLQEGDKLMVNVSDISLVDYTKEDKTFFGAFLL
B11: anti-TL1A antibody 26B11 (antibody, V domains shown)
VH: QVQLVESGGGVVQPGRSLRLSCAASGFTFSSFAMHWVRQAPGKGLEWVALIPFDGSSNYYADSVKGRFTISRDNSKNTLYLQMNSLRAEDTAVYYCARDRNYYGSGSFSFDAFDIWGQGTLVTVSS
VL: DIQMTQSPSSLSASVGDRVTITCRASQGISNWLAWYQQKPEKAPKSLIYAASSLQSGVPSRFSGSGSGTDFTLTISSLQPEDFATYYCQQYNSYPYTFGQGTKLEIKR
notes: also called 26B11-hIgG1-3m

Changes are numbered by the printed parent chain. Like-named read-outs stand apart in the source and are kept apart here.

In test [1] the target is T1, recombinant soluble cynomolgus monkey …. Nature of the test: SPR, IgG captured on anti-hIgG, TL1A injected.
Excerpt: (§1) To characterize the binding kinetics of the anti-TL1A antibodies to TL1A by surface plasmon resonance, each anti-TL1A antibody was captured via directly immobilized anti-human IgG (GE Healthcare) onto a carboxymethylated dextran sensor chip surface (CM5) using a Biacore T100 or T200 instrument. Anti-human IgG was immobilized through amine coupling to densities of approximately 4,000-13,000 response units (RU). […] At the end of each cycle, the entire anti-human IgG (hIgG) surface was regenerated by a 30-second pulse of 3M MgCl₂ followed by two consecutive 15-second pulses of PBS-NET. All injections were performed at 25° C. at a collection rate of 10 Hz. All sensorgrams were double referenced by using both a control surface and buffer injections. Rate constants were determined by fitting the data to a 1:1 model in Biacore T100, T200 evaluation software v1.0, or BIAevaluation software v4.1.1 and the equation KD=kd/kₐ.
(§2) The anti-TL1A antibodies were captured onto immobilized anti-human Fc on a CM5 sensor chip on a Biacore T100 instrument. […] Rate constants shown in the table were determined by fitting to a 1:1 Langmuir binding model in BiaEvaluation v4.1.1 (fit lines shown in red). Data shown are the average and standard deviation of at least 3 independent surfaces between 2 experiments.
Test [2] deals with B10. As to the kind of experiment: SPR, IgG captured on anti-hIgG, TL1A injected. For orientation: In SPR one partner is held on a chip, and binding of the other changes the refractive index at the surface.
Excerpt: as §1, §2
The target in test [3] is B10. As to the kind of experiment: SPR, IgG captured on anti-hIgG, TL1A injected; off rate too slow to measure.
Test [4] deals with T2, recombinant soluble murine TL1A. As to the kind of experiment: SPR, IgG captured on anti-hIgG, TL1A injected.
Excerpt: (§3) The antibodies were captured via directly immobilized anti-human IgG (GE Healthcare) onto a carboxymethylated dextran sensor chip surface (CM5) using a Biacore T100 or T200 instrument. Anti-human IgG was immobilized through amine coupling to densities of approximately 4,000-13,000 response units (RU). […] At the end of each cycle, the entire anti-hIgG surface was regenerated by a 30-second pulse of 3M MgCl₂ followed by two consecutive 15-second pulses of PBS-NET. […] All injections were performed at 25° C. at a collection rate of 10 Hz. All sensorgrams were double referenced by using both a control surface and buffer injections. Rate constants were determined by fitting the data to a 1:1 model in Biacore T100, T200 evaluation software v1.0, or BIAevaluation software v4.1.1 and the equation KD=Kd/kₐ.
(§4) At the highest cytokine concentrations, the dissociation phase was sometimes extended to 60 minutes to achieve at least a 5% decrease in binding signal.
For test [5], the target named is T3, recombinant soluble rabbit TL1A. As to the kind of experiment: SPR, IgG captured on anti-hIgG, TL1A injected.
Excerpt: as §3, §4
For test [6], the target named is T4, recombinant soluble rat TL1A. Nature of the test: SPR, IgG captured on anti-hIgG, TL1A injected.
Excerpt: as §3, §4
For test [7], the target named is B10. As to the kind of experiment: KinExA, equilibrium in solution.
In test [8] the target is T5, endogenous TL1A of stimulated human …. As to the kind of experiment: cell-based or functional assay.
Test [9] concerns the target B10. Nature of the test: cell-based or functional assay.
For test [10], the target named is T1, recombinant soluble cynomolgus monkey …. Nature of the test: SPR, IgG captured on anti-hIgG, TL1A injected.
The target in test [11] is B10. As to the kind of experiment: SPR, IgG captured on anti-hIgG, TL1A injected. This is another data set of the same source.
Description: Biacore analysis was performed using T-200 biosensor, series S CM5 chips and approximately 4000 RU (response units) of an anti-human IgG (GE Healthcare), immobilized in 10 mM sodium acetate immobilization buffer at pH 5.0. Assay conditions were established to minimize the influence of mass transfer, avidity, and rebinding events, as described below. A blank immobilization was carried out on a separate flow cell for reference subtraction. The purified IgGs were diluted in running buffer (PBS, 300 mM sodium chloride, 3.2 mM ethylenediaminetetraacetic acid, 0.01% Tween20) and low levels (<30 RU) captured using a flow rate of 100 μl/min for 2 min, to reduce possible rebinding by the trimeric TL1A. […] Reference-subtracted sensorgrams for each concentration were analyzed using Biacore T-200 evaluation software (v1.0).
For test [12], the target named is T2, recombinant soluble murine TL1A. As to the kind of experiment: SPR, IgG captured on anti-hIgG, TL1A injected.
Test [13] addresses T1, recombinant soluble cynomolgus monkey …. As to the kind of experiment: SPR, IgG captured on anti-hIgG, TL1A injected.
Test [14] concerns the target B10. As to the kind of experiment: SPR, IgG captured on anti-hIgG, TL1A injected. The source holds these as a separate data set.
The target in test [15] is B10. Nature of the test: binding test of the 1D1 point mutants, method not named.
The next test concerns the target T6, DR3 on TF-1 cells. Nature of the test: cell-based or functional assay.

As to B1, in test [1], the Kd (as a rule, the constant that tells how readily two partners part at equilibrium) was found to be 6.9 nM; the koff (in general, a measure of how fast the partners let go of each other) turned out to be 0.0014 s⁻¹; the kon – broadly, the second-order rate constant of association – is 200000 M⁻¹ s⁻¹. In addition, in test [2], the Kd was determined as 0.9 nM, the koff was 0.0004 s⁻¹ and the kon was found to be 400000 M⁻¹ s⁻¹.

For B2, the Kd is below 0.1 nM in test [3]; 1.64 nM in test [4]; 0.478 nM in test [5]; 10.9 nM in test [6]; 0.00769 nM in test [7]; 0.22 nM in test [10]. Moreover, the off-rate (koff) in test [4] stood at 0.00043 s⁻¹; in test [5], 0.00014 s⁻¹; in test [6], 0.0072 s⁻¹; in [10], 8e-05 s⁻¹. Moreover, the kon came to 270000 M⁻¹ s⁻¹ in test [4], 300000 M⁻¹ s⁻¹ in test [5], 670000 M⁻¹ s⁻¹ in test [6] and 390000 M⁻¹ s⁻¹ in test [10]. The t1/2 in test [4] is 26.9 min; in [5] it was 82.1 min; in test [6] it was 1.6 min; in [10], 141 min. Moreover, in test [8], the “HWB Assay, average IC50” value was found to be 0.000968 nM. Besides, in test [9], the “Caspase Assay, average IC50” value stood at 0.0702 nM. For the same molecule, the “NFkB Assay, average IC50” value in test [9] turned out to be 0.14 nM.

As to B3, the Kd in [11] worked out at 0.326 nM; in test [12], 0.787 nM; in test [13], 0.335 nM; in [14], 0.305 nM. Besides, the koff in [11] worked out at 0.00035 s⁻¹. Besides, the kon in [11] stood at 1.26e+06 M⁻¹ s⁻¹.

In the case of B4, the Kd in test [15] was found to be 0.42 nM.

As to B5, the dissociation constant Kd in test [11] was found to be 0.412 nM; in [12], 0.62 nM; in [13], 0.675 nM; in test [14], 0.56 nM. The koff in test [11] turned out to be 0.00102 s⁻¹. Also, the kon in [11] stood at 2.49e+06 M⁻¹ s⁻¹.

Turning to B6, the Kd is 0.394 nM in test [11], 0.804 nM in test [12], 0.943 nM in [13] and 0.932 nM in test [14]. In addition, the koff in test [11] was found to be 0.000806 s⁻¹. Also, in [11], the kon was determined as 2.04e+06 M⁻¹ s⁻¹.

B7: the Kd was determined as 0.442 nM in test [11], 0.613 nM in test [12], 0.396 nM in [13] and 0.441 nM in test [14]. Besides, in test [11], the koff worked out at 0.000355 s⁻¹. Further, the kon in test [11] was 784000 M⁻¹ s⁻¹.

Turning to B8, the Kd came to 0.44 nM in [11], 1.29 nM in test [12], 0.611 nM in [13] and 0.687 nM in test [14]. The koff in test [11] worked out at 0.000463 s⁻¹. Besides, in test [11], the kon was found to be 1.05e+06 M⁻¹ s⁻¹.

On to B9, for which the Kd in test [15] worked out at 6.8 nM.

On to B10, for which, in the test with DR3 on TF-1 cells, the “NFκB-luciferase activity in TF-1-NFκB-luciferase cells, EC50” value was found to be 0.149 nM; the “NFκB-luciferase activity, EC50 in the absence of isotype control antibody” value came to 0.103 nM; the “NFκB-luciferase activity, EC50 in the presence of isotype control antibody” value was determined as 0.11 nM; the “caspase activity in TF-1 cells with cycloheximide, EC50” value is 0.09 nM.

In the case of B11, in test [1], the Kd was 36 nM, the koff came out at 0.006 s⁻¹ and the kon was determined as 200000 M⁻¹ s⁻¹. Also, in test [2], the Kd was 0.6 nM, the koff amounted to 0.00011 s⁻¹ and the kon worked out at 170000 M⁻¹ s⁻¹.
